We go through 167 variants from the RNAGym collection of RNA variant scans (doi:10.7554/elife.80360).

Sequences and labels used below:
B1: HDV Ribozyme (parent)
chain: GGCCGGCAUGGUCCCAGCCUCCUCGCUGGCGCCGGCUGGGCAACAUUCCGAGGGGACCGUCCCCUCGGUAAUGGCGAAUGGGACCCA

The data set covers variants of B1. Kind of data set: self-cleavage, relative activity (ratio to wild type); higher = more cleavage; co-transcriptional.
As for C32U C64G, the self-cleavage turned out to be 0.875. In the case of C33A A43G, the self-cleavage was 0.

For C33A C85A, the self-cleavage was 0.18. As for C33U G53U, the self-cleavage came out at 0.916. Turning to C33A C75U, the self-cleavage came to 0.0563. As to C33A C75A, the self-cleavage came to 0.122. C32U C84A: the self-cleavage turned out to be 0.753. With C33A A87U, the self-cleavage was 0.226. As for C33A A51U, the self-cleavage is 0.373. Under C33U C66U stands 0.774; under C33A C86G, 0.277; under C33A C86U, 0.244.

As to C33G G59C, the self-cleavage was 0.201. Consider C32U A83G, for which the self-cleavage was 0.501. C32U A83C: the self-cleavage came to 0.232. As to C33U G39A, the self-cleavage came to 0.182. As to C33U C36A, the self-cleavage was found to be 0.151. Under C33U C86A stands 0.746; under C32U G55A, 0.967. In the case of C32U C48A, the self-cleavage came out at 1.04. Under C32U C48G stands 1.04; under C33U C41G, 0.372; under C33G G34A, 0.0831. C32U U69C: the self-cleavage came to 1.19. C32G U60G: the self-cleavage amounted to 0.196. For C33A U37A, the self-cleavage was determined as 0.151. Turning to C32U U47C, the self-cleavage was found to be 0.764. Under C32U G67A stands 0.857; under C32U C75G, 0.17. On to C33U U46A, for which the self-cleavage was found to be 0.434.

In the case of C33A A42U, the self-cleavage turned out to be 0.0314. C33G G67U: the self-cleavage is 0.111. Under G34A A56G stands 0.104. With C32U C49A, the self-cleavage was determined as 0.683. On to C33A U60G, for which the self-cleavage came to 0.116.

In the case of C32U C61G, the self-cleavage stood at 0.791. Regarding C33U G74C, the self-cleavage was found to be 0.0339. Under C33U G74U stands 0.41; under C32G U47A, 0.244; under C33G A51U, 0.0811. On to C33G A51C, for which the self-cleavage is 0.246.

As to C33A G35A, the self-cleavage turned out to be 0.151. Take C33A G67U: the self-cleavage worked out at 0.253. C32U C85U: the self-cleavage came to 0.725. With C33A A78C, the self-cleavage came to 0.0997.

On to C33G G74C, for which the self-cleavage was found to be 0.237. For C33G A70G, the self-cleavage came to 0.104. Regarding C33G A43C, the self-cleavage turned out to be 0.0723. Take C33G A43G: the self-cleavage stood at 0. Under C33G C64U stands 0.306; under C32G U79G, 0.172. As to C32G U79A, the self-cleavage came out at 0.19.

In the case of C32U U79G, the self-cleavage worked out at 0.504. Under C33A U72G stands 0.122; under C33G C85G, 0.151. On to C32U G73A, for which the self-cleavage is 0.364. Under C32U A71U stands 0.565. In the case of C32U A71G, the self-cleavage turned out to be 0.903. Take C33G C66A: the self-cleavage turned out to be 0.198. As to C32G U65A, the self-cleavage came out at 0.0545.

Turning to C33G G76U, the self-cleavage was 0.116. Under C32U G52U stands 0.963. For the variant C32U G52A, the self-cleavage stood at 0.805. Under C33U C63U stands 0.845; under C33A C58G, 0.332. As to C33G G40C, the self-cleavage turned out to be 0.138.

For C33G G54C, the self-cleavage was found to be 0.143. Turning to C32U G81C, the self-cleavage came to 0.248. With C32U U46A, the self-cleavage is 0.573.

In the case of C33G G38U, the self-cleavage is 0.246. For C32U G40A, the self-cleavage came out at 0.987.

As to C32U G38U, the self-cleavage is 0.205. Turning to C32U C86A, the self-cleavage was 0.69. Under C33A U46G stands 0.0615; under C33U G67A, 0.749.

Consider C32U A77C, for which the self-cleavage was found to be 0.162. On to C33G G80A, for which the self-cleavage was 0.0631. Under C33G G80U stands 0.0528.

Turning to C33A G55C, the self-cleavage is 0.181. Consider C32U G39U, for which the self-cleavage worked out at 0.486. Under C32U G53A stands 1.01; under C33U U60C, 0.773.

C33G A45C: the self-cleavage came out at 0.0449. On to C32G U46C, for which the self-cleavage is 0.0978. Consider C33A G80A, for which the self-cleavage stood at 0.123. Regarding C32U G35C, the self-cleavage is 0.0573. Under C33U G68U stands 0.678; under C33U G68C, 0.789; under C33U C44A, 0.499. C33U U79A: the self-cleavage is 0.684. Consider C33G C62A, for which the self-cleavage stood at 0.225. Regarding C33G A78C, the self-cleavage came out at 0.

On to C33A G68U, for which the self-cleavage worked out at 0.102. For C33U C61A, the self-cleavage came out at 0.721. On to C33A U79G, for which the self-cleavage turned out to be 0.214. Under C33U G50A stands 0.774; under C33U G50C, 0.786; under C33U A71G, 0.886. For the variant C33G A71U, the self-cleavage came to 0.213.

Take C33U C62A: the self-cleavage is 0.583.

C33U C62G: the self-cleavage turned out to be 0.635. Regarding C33U G82A, the self-cleavage stood at 0.302. Consider C32U G50A, for which the self-cleavage came to 0.862.

C32U G50U: the self-cleavage came to 0.844.

With C33A A45G, the self-cleavage stood at 0.0536. Under C33G A77G stands 0.138; under C33G A77C, 0.115. Consider C33A G82U, for which the self-cleavage came out at 0.0332. Turning to C33A G82A, the self-cleavage was found to be 0.102. Take C33U A78G: the self-cleavage stood at 0.228.

C32U C58U: the self-cleavage amounted to 0.831. Consider C32U C44G, for which the self-cleavage came to 0.374. Consider C33A G40U, for which the self-cleavage amounted to 0.23. Regarding G34A A51C, the self-cleavage turned out to be 0.193. Under C33A G34C stands 0.108; under C32U U60A, 0.782; under C33A A83U, 0.217. C33U G59U: the self-cleavage came to 0.855. Under C32U G74C stands 0.224; under C33U G40U, 0.78. As for C33U A56U, the self-cleavage was found to be 0.758. Under C33G G52U stands 0.119. As for C33A C41U, the self-cleavage stood at 0.163. In the case of C33U C75G, the self-cleavage amounted to 0.222.

For C33U C75U, the self-cleavage was 0.0817.

For C33U A83U, the self-cleavage is 0.415. With C33U A83G, the self-cleavage was determined as 0.511. On to C33G U47G, for which the self-cleavage amounted to 0.0723. Under C32U G82U stands 0.256; under C33A U47C, 0.0692; under C33A U47A, 0.0378. Consider C32U C62G, for which the self-cleavage worked out at 0.727. Turning to C33U G81U, the self-cleavage was determined as 0.177. With C33A G81U, the self-cleavage is 0.0978. Regarding C33G G50C, the self-cleavage worked out at 0.246.

With C33G G50A, the self-cleavage is 0.148.

Turning to C33G C48G, the self-cleavage is 0.227.

For the variant C33U C64G, the self-cleavage was determined as 0.736. C33G G55U: the self-cleavage was 0.204. As for C32U G34C, the self-cleavage is 0.0875. As to C32U G34U, the self-cleavage was found to be 0.215. With C32U G34A, the self-cleavage worked out at 0.0302. With C33U A45U, the self-cleavage was 0.57. Take C32U A56G: the self-cleavage is 0.872. Take C32U C57U: the self-cleavage was 0.843. As to C32U C57A, the self-cleavage was 0.817.

With C32U C57G, the self-cleavage was 0.975. Under C33U A87C stands 0.745. Take C32U G80U: the self-cleavage is 0.145. Turning to C33U G54U, the self-cleavage was found to be 0.901.

With C33U G54C, the self-cleavage was determined as 0.623. As for C33U G54A, the self-cleavage was determined as 1.05. Under C33G U72A stands 0; under C33G U72G, 0. Under C32U A43U stands 0.491; under C32U A43G, 0.63. On to C33U G76A, for which the self-cleavage worked out at 0.978. Under C33A C57G stands 0.332; under C33G G82U, 0.

In the case of C33U C49G, the self-cleavage stood at 0.855.

As for C33U C48A, the self-cleavage is 0.631. Turning to C32U C66U, the self-cleavage turned out to be 0.926. In the case of C33U G80U, the self-cleavage amounted to 0.179. Under C33U G80A stands 0.12; under C33G U79A, 0.0755.

As for C33G U79C, the self-cleavage stood at 0.0875. Take C32U G68C: the self-cleavage amounted to 0.803.
